Source: US12404312B2, “Engineered VEGF variants for retinal neuroprotection, promotion of axon growth and axon regeneration” (Massachusetts Eye and Ear Infirmary, priority 2018, dated 2025)

How the values were obtained:
primary mouse RGC [1] = test: Axon and neurite formation in primary mouse RGC; assay type: cell-based; conditions: for average number of branch points of neurite per RGC / average axon length per RGC / average number of neurites per RGC / percentage of RGC with axons longer than 3× cell body length: primary RGC; for average number of branch points of neurite per RGC: compared to control; for average axon length per RGC / average number of neurites per RGC / percentage of RGC with axons longer than 3× cell body length: compared to the GFP control
Description: FIG. 6 is a series of photomicrographs showing correlative fluorescence and electron microscopy showing extra long axons (>1400 μm) from some of the eVEGF-38 overexpressing primary RGC. Green arrows, eVEGF-38 overexpressing cells; blue arrows, untransduced primary mouse RGC.
FIGS. 7A and 7B are a series of bar graphs and dot plots showing that VEGFR2 signaling is required for the formation of long axons by primary RGC overexpressing eVEGF-38, eVEGF-53, and VEGF189. […] Recombinant VEGF121 protein was added to a final concentration of 2.5 nM. […] Labels: 38, eVEGF-38; 53, eVEGF-53; 189, VEGF189; UT, untreated. Data=mean±SD, n=15 fields from 3 independent wells per group, *P<0.05, **P<0.01, ***P<0.001, one-way ANOVA.
(§1) eVEGF-38 and eVEGF-53 localize to the cell membrane and comprise myc-tags. VEGF189 was constructed with a myc-tag. The constructs were packaged into adeno-associated virus serotype 2 (AAV2) for efficient transduction and expression in human microvascular endothelial cells (hREC) and RGC. Transgenes expression was measured by western blot, qPCR and immunostaining. In hREC, VEGFR2, VCAM-1, E-selectin and tissue factor expression were measured by immunostaining or qPCR. VEGFR2 signaling, axon length, and synapse formation in RGC were measured by immunostaining. RGC survival was measured by TUNEL staining and intracellular [Ca2+] was measured using fura2/AM calcium imaging.

RGC = test: Intracellular [Ca2+] in RGC by fura2/AM calcium imaging; assay type: cell-based, mouse; conditions: upon carbachol and NMDA stimulation; compared to control
Experimental: as §1

primary mouse RGC [2] = test: Survival of primary mouse RGC in culture; assay type: cell-based; conditions: control 22% survival, P<0.001
Experimental: FIG. 3A is a bar graph showing the results from experiments using primary mouse RGC isolated from P3 pups were transduced with different AAVs to overexpress eVEGF-38, eVEGF-53, VEGF189, or the control GFP on the day of isolation (day 0), or treated with exogenous recombinant VEGF121 protein on day 2. The number viable RGC was determined by immunostaining for beta III tubulin while total cell number per field was determined by DAPI staining on day 3 of culture.
FIG. 3B is a bar graph showing that the majority of the viable RGC were expressing the eVEGF-38, eVEGF-53, or VEGF189, whereas the GFP-expressing RGC were not protected in culture. Data=mean±SD, ***P<0.001 by unpaired t-test, n=15 different fields total (5 fields/well) from three independent wells of primary RGC.
as §1

primary RGC = test: Synapse formation / synaptophysin expression in primary RGC; assay type: cell-based, mouse; conditions: for synaptic vesicle marker synaptophysin in axons and neurites: primary RGC overexpressing the transgene
Experimental: as §1

primary mouse RGC [3] = test: H2O2-induced cell death of primary mouse RGC (TUNEL staining); assay type: cell-based; conditions: P<0.05
Experimental: as §1, with “Cell death was analyzed by TUNEL staining” for “eVEGF-38”, “transgene expression by immunostaining. Percentage of viable RGC was determined by: (TUNEL-negative RGC with transgenes expression)/(total” for “eVEGF-53 localize to the”, “number by DAPI staining). […]” for “membrane and comprise myc-tags. VEGF189 was constructed with a myc-tag.”

VEGFR2 = target: T1, VEGFR2 (Homo sapiens, UniProt P35968); test: VEGFR2 activation (p-VEGFR2 western blot) in transfected hREC; assay type: cell-based; conditions: hREC transfected with expression construct; lysate at 24 and 48 hours post transfection; vs GFP control
T1 construct: Human retinal endothelial cells (hREC) that express VEGFR2; endogenous in cells; host or cells: human retinal endothelial cells (hREC)
Experimental: Human retinal endothelial cells (hREC) that express VEGFR2 were transfected with eVEGF-38 or eVEGF-53, or VEGF189, or control GFP (ctr) expression construct and total cell lysate was collected at 24 and 48 hours post transfection. Activation of VEGFR2 was determined by the levels of VEGFR2 phosphorylation (p-VEGFR2). Data=mean±SD, **P<0.01 by unpaired t-test, n=3 independent western blot assays.
as §1

primary mouse RGC [4] = test: Gene expression analysis of primary mouse RGC; assay type: cell-based; conditions: overexpressing primary mouse RGC; vs GFP control
Description: FIG. 9 is a series of bar graphs showing that overexpression of eVEGF-38 in primary RGC suppresses genes that are associated with cell death and suppression of axon formation, but induces genes that are associated with axon growth and neuronal function. Label: 38, eVEGF-38; Ctr, GFP control. Data=mean±SD, n=3 independent wells of primary RGC, *P<0.05, **P<0.01, ***P<0.001 by unpaired t-test.
Furthermore, eVEGF-38 and eVEGF-53 chimeric polypeptides and VEGF189 expression enhanced axons and neurites formation of primary mouse RGCs (FIGS. 5A-C, FIG. 6, and FIGS. 7A-B), supported synaptogenesis and likely neuronal function (FIG. 8), which are consistent with the role of VEGF in promoting neurogenesis and neuronal function in vitro and in vivo. […] Together, the data support overexpression of eVEGF-38, eVEGF-53 and the natural VEGF189 isoform in RGC promotes cell-autonomous RGC survival, axon growth and regeneration, and neuronal function, and is useful and a therapeutic agent for treatment of glaucoma. The chimeric polypeptides can be used therapeutically via a gene therapy approach (AAV) for eVEGF-38, eVEGF-53 and VEGF189. Activity is tested in animal models of glaucoma and optic nerve injury/regeneration.

[5] = tested on: human microvascular endothelial cells (hREC); test: Pro-inflammatory markers (VCAM-1, E-selectin, tissue factor) in hREC by immunostaining or qPCR; assay type: cell-based; conditions: compared with GFP/AAV2 control, p<0.05
Experimental: as §1

T1 sequence (P35968 20-1356): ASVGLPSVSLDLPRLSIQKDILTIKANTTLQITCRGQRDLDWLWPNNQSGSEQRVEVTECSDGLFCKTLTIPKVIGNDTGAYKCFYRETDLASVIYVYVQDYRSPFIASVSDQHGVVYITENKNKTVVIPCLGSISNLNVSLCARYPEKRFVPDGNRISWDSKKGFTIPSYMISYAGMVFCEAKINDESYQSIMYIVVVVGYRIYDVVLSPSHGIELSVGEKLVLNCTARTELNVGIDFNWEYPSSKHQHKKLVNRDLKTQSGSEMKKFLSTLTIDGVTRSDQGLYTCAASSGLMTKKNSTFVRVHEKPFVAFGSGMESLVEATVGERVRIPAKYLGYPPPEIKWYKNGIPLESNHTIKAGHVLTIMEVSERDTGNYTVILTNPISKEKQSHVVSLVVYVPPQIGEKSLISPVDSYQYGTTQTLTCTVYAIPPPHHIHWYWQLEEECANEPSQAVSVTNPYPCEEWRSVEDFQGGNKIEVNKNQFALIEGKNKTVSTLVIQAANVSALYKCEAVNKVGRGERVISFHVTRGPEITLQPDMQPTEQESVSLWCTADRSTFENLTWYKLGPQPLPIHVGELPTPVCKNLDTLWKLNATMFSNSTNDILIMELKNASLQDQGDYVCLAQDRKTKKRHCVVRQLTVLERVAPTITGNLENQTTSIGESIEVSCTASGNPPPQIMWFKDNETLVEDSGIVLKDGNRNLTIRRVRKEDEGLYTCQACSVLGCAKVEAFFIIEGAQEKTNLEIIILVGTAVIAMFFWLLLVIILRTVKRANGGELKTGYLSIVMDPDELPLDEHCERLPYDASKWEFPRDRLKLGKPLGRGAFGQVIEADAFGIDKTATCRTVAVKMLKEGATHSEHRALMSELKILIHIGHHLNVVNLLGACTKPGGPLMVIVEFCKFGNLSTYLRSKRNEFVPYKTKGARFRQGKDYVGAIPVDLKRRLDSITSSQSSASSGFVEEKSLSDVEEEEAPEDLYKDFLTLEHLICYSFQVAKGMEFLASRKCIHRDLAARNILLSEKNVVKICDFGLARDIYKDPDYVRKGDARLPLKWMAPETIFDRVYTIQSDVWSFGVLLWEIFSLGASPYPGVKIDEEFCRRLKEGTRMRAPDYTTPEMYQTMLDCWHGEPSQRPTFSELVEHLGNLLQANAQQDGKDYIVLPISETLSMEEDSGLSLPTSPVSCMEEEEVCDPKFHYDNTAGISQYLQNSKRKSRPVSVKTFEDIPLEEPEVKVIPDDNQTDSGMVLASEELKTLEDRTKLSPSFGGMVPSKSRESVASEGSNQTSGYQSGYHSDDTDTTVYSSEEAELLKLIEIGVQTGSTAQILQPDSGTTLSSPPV

B1: eVEGF-53: engineered covalently linked dimer of VEGF121 isoform with a 53 amino acid glycine-rich linker connected to a GPI anchor (SEQ ID NO: 2) (protein)
chain: MNFLLSWVHWSLALLLYLHHAKWSQAAPMAEGGGQNHHEVVKFMDVYQRSYCHPIETLVDIFQEYPDEIEYIFKPSCVPLMRCGGCCNDEGLECVPTEESNITMQIMRIKPHQGQHIGEMSFLQHNKCECRPKKDRARQEKCDKPRRGGSSGGSSGGSGGGTGGGSGAPMAEGGGQNHHEVVKFMDVYQRSYCHPIETLVDIFQEYPDEIEYIFKPSCVPLMRCGGCCNDEGLECVPTEESNITMQIMRIKPHQGQHIGEMSFLQHNKCECRPKKDRARQEKCDKPRRGNGNGNGNGNGNGNEQKLISEEDLKLAAAGNGNGNGNGNGNGNGDGNGGALCNGAGFATPVTLALVPALLATFWSLL
Primary mouse RGC [1]
  average number of branch points of neurite per RGC: significantly increase
  average axon length per RGC: significantly increases
  average number of neurites per RGC: significantly increases
  percentage of RGC with axons longer than 3× cell body length: significantly increases
RGC
  intracellular [Ca2+]: decreased
Primary mouse RGC [2]
  RGC survival: 48%
Primary RGC
  synaptic vesicle marker synaptophysin in axons and neurites: also express synaptic vesicle marker synaptophysin
Primary mouse RGC [3]
  increased RGC survival upon H2O2 treatment compared to control: 15%
VEGFR2
  VEGFR2 activation by levels of VEGFR2 phosphorylation (p-VEGFR2): can sustain VEGFR2 activation in a cell autonomous fashion

B2: eVEGF-38: engineered covalently linked dimer of VEGF121 isoform with a 38 amino acid glycine-rich linker connected to a GPI anchor (SEQ ID NO: 1) (protein)
chain: MNFLLSWVHWSLALLLYLHHAKWSQAAPMAEGGGQNHHEVVKFMDVYQRSYCHPIETLVDIFQEYPDEIEYIFKPSCVPLMRCGGCCNDEGLECVPTEESNITMQIMRIKPHQGQHIGEMSFLQHNKCECRPKKDRARQEKCDKPRRGGSSGGSSGGSGGGTGGGSGAPMAEGGGQNHHEVVKFMDVYQRSYCHPIETLVDIFQEYPDEIEYIFKPSCVPLMRCGGCCNDEGLECVPTEESNITMQIMRIKPHQGQHIGEMSFLQHNKCECRPKKDRARQEKCDKPRRGNGNGEQKLISEEDLKLAAAGNGGNGNGNGDGNGALCNGAGFATPVTLALVPALLATFWSLL
Primary mouse RGC [1]
  average number of branch points of neurite per RGC: significantly increase
  average axon length per RGC: significantly increases
  average number of neurites per RGC: significantly increases
  percentage of RGC with axons longer than 3× cell body length: significantly increases
Primary mouse RGC [1]; some of the overexpressing primary RGC, correlative fluorescence and electron microscopy
  length of extra long axons: > 1400 μm
RGC
  intracellular [Ca2+]: decreased
Primary mouse RGC [2]
  RGC survival: 45%
Primary RGC
  synaptic vesicle marker synaptophysin in axons and neurites: also express synaptic vesicle marker synaptophysin
Primary mouse RGC [3]
  increased RGC survival upon H2O2 treatment compared to control: 10%
VEGFR2
  VEGFR2 activation by levels of VEGFR2 phosphorylation (p-VEGFR2): can sustain VEGFR2 activation in a cell autonomous fashion
Primary mouse RGC [4]
  genes involved in apoptosis and cell death (bax/bcl2 ratio) and inhibition of axon formation (Tsc1): down-regulation
  genes involved in axon growth (KLF7), neurogenesis (Microtubule-associated protein 1B) and synaptic vesicle trafficking (vesicle-associated membrane protein 3): up-regulation

B3: VEGF189: natural VEGF189 isoform with strong heparin-binding domain, constructed with a myc-tag (SEQ ID NO: 3), tested for comparison (protein)
chain: MNFLLSWVHWSLALLLYLHHAKWSQAAPMAEGGGQNHHEVVKFMDVYQRSYCHPIETLVDIFQEYPDEIEYIFKPSCVPLMRCGGCCNDEGLECVPTEESNITMQIMRIKPHQGQHIGEMSFLQHNKCECRPKKDRARQEKKSVRGKGKGQKRKRKKSRYKSWSVPCGPCSERRKHLFVQDPQTCKCSCKNTDSRCKARQLELNERTCRCDKPRRKLGNGNGEQKLISEEDLGN
modifications: myc tag
Primary mouse RGC [1]
  average axon length per RGC: significantly increases
  average number of neurites per RGC: significantly increases
  percentage of RGC with axons longer than 3× cell body length: significantly increases
[5]
  pro-inflammatory markers: increased
Primary mouse RGC [2]
  RGC survival: 50%
Primary RGC; RGC
  synapse formation: promoted synapse formation
Primary RGC
  synaptic vesicle marker synaptophysin in axons and neurites: also express synaptic vesicle marker synaptophysin
Primary mouse RGC [3]
  increased RGC survival upon H2O2 treatment compared to control: 18%
VEGFR2
  VEGFR2 activation by levels of VEGFR2 phosphorylation (p-VEGFR2): can sustain VEGFR2 activation in a cell autonomous fashion
